By koff is commonly meant the rate constant with which the complex falls apart. Lower therefore signals a long-lived complex. In general, kon refers to the second-order rate constant of association.

One molecule from PMC3307221 (Analytical Chemistry, 2012) can be followed below.

The experiment addresses protective antigen of anthrax (Bacillus anthracis, strain , UniProt P13423). The experiment in a line: SPR. A general note: SPR reads the build-up and loss of mass on a sensor chip optically.

Sequence of protective antigen of anthrax (P13423 whole entry, looked up): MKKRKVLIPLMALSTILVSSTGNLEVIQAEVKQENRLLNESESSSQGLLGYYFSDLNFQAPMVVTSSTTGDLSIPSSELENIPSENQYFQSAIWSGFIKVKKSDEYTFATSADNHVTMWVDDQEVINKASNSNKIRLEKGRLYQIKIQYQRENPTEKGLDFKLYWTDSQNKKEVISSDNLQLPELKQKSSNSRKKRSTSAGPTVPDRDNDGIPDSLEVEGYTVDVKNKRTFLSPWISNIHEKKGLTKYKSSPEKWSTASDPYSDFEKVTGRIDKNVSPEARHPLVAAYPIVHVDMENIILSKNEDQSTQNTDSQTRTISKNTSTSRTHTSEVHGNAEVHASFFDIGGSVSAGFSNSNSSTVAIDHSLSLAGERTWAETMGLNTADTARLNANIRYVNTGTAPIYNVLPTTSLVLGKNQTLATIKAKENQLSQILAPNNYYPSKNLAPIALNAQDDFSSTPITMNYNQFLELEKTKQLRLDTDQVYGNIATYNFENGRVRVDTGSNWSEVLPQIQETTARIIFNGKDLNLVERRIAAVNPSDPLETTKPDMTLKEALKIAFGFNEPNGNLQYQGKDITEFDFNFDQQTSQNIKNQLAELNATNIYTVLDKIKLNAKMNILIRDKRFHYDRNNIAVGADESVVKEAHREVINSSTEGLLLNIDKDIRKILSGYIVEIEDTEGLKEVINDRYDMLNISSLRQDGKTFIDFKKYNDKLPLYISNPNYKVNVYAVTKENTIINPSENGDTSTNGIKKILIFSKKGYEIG

B1: M18 scFv (scFv, V domains shown)
VH: EVQLQQSGPELVKPGASVKISCKDSGYAFNSSWMNWVKQRPGQGLEWIGRIYPGDGDSNYNGKFEGKAILTADKSSSTAYMQLSSLTSVDSAVYFCARSGLLRYAMDYWGQGTSVTVSS
VL: DIQMTQTTSSLSASLGDRVTVSCRASQDIRNYLNWYQQKPDGTVKFLIYYTSRLQPGVPSRFSGSGSGTDYSLTINNLEQEDIGTYFCQQGNTPPWTFGGGTKLEIK
Molecule B1 gave a koff of 0.00011 s⁻¹ and a kon of 597000 M⁻¹ s⁻¹.
